Laboratory results reported in patent US20250074973A1 (ANNEXON, published 2025).

Target: T1, human C1q (complement factor C1q, chains A, B and C) (Homo sapiens, UniProt P02745 23-245; P02746 28-253; P02747 29-245)
T1 construct: Endogenous C1q in serum and CSF of the treated human subjects
Assay: in vivo target engagement (PK/PD) in serum and CSF of dosed HD patients

T1 sequence (P02745 23-245 limits assumed, chain 1 of 3): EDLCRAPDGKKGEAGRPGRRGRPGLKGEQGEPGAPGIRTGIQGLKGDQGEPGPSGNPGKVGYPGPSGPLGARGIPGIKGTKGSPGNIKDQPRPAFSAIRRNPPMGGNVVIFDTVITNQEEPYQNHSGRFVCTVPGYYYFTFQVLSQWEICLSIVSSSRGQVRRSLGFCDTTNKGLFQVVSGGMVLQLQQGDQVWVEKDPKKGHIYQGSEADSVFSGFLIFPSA
T1 sequence (P02746 28-253 limits assumed, chain 2 of 3): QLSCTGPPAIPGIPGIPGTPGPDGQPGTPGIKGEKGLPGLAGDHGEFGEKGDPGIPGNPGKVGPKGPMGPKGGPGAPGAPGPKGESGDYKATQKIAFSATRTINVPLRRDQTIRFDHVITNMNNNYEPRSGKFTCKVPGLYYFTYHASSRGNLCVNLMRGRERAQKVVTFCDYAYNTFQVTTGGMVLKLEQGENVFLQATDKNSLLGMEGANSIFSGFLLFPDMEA
T1 sequence (P02747 29-245 limits assumed, chain 3 of 3): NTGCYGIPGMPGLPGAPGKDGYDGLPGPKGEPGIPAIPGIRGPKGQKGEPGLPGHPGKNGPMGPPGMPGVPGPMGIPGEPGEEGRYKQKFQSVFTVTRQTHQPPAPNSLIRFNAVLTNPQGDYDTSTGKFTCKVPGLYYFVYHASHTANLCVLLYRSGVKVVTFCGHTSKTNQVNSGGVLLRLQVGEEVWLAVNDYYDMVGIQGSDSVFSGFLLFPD

- binding result: binds
B1: full-length C1q antibody (heavy chain SEQ ID NO: 14; light chain SEQ ID NO: 40) (antibody, human IgG4 S228P, kappa)
heavy: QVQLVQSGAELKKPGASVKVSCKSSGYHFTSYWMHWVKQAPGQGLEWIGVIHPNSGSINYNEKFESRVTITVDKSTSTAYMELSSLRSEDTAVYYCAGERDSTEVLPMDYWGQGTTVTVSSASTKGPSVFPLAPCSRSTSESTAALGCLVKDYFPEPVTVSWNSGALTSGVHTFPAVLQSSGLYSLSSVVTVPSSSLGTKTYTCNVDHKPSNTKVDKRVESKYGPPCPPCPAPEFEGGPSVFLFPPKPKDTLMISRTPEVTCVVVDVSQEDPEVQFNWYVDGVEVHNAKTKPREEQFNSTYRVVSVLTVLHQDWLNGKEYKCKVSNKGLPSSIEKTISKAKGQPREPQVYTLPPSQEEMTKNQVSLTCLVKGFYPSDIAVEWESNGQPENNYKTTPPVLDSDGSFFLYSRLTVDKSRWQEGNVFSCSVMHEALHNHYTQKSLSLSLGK
light: DVQITQSPSSLSASLGERATINCRASKSINKYLAWYQQKPGKAPKLLIYSGSTLQSGIPARFSGSGSGTDFTLTISSLEPEDFAMYYCQQHNEYPLTFGQGTKLEIKRTVAAPSVFIFPPSDEQLKSGTASVVCLLNNFYPREAKVQWKVDNALQSGNSQESVTEQDSKDSTYSLSSTLTLSKADYEKHKVYACEVTHQGLSSPVTKSFNRGEC
notes: also called full-length anti-C1q antibody; anti-C1q antibody
